In patent US20250283060 (BOARD OF REGENTS, THE UNIVERSITY OF TEXAS SYSTEM, published 2025):

Legend:
[1] = target: NPT7 v443 with NLS removed (synthetic construct); test: cell_activity; ZsGreen reporter in HEK293T, 48 h, cytoplasmic; details: tags: NLS removed
NPT7 variant ES-443 (V3) = NPT7 variant ES-443 (V3) (synthetic construct); test: cell_activity; ZsGreen reporter fluorescence in S. cerevisiae; reflects transcription and capping; details: tags: SV40 NLS N-terminal

B1: T7 promoter WT (dsDNA)
DNA 1: TAATACGACTCACTATA
DNA 2: TATAGTGAGTCGTATTA
binding signal [1]: ~1.8 fold vs WT NPT7
binding signal (NPT7 variant ES-443 (V3)): 76 fold vs K282A control
